Experimental data taken from patent US20130022551A1 (TRUSTEES OF BOSTON UNIVERSITY, published 2013).

Columns and labels:
rat DEspR (rat) = rat DEspR (rat) (UniProt D3ZGZ6); assay: in vivo contrast-enhanced ultrasound of carotid arteries, pre-/post-destruction difference, isotype control microbubbles in Tg25+ rats
[1] = biological target: T1, human dual endothelin-1/VEGF signal peptide receptor (hDEspR) (human) (UniProt B0L3A2); assay: microbubble adherence to HUVECs, isotype control at 800× MB to cell ratio
T1 sequence: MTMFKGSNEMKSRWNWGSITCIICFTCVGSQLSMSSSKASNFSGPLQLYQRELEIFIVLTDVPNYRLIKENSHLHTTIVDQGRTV

[2] = biological target: T1, human dual endothelin-1/VEGF signal peptide receptor (hDEspR) (human); assay: cell-based or functional assay
[3] = biological target: T2, antigenic hDEspR 9-aa peptide, NH2-terminal 9 amino acids of hDEspR (human); assay: indirect ELISA, free hDEspR 9-aa peptide coated on the plate, hybridoma supernatant at 1 ug/ml in two-fold serial dilutions (1 = 1/2 ... 12 = 1/4096), HRP anti-IgG, OD450
T2 construct: Free peptide coated directly on ELISA wells; The KLH conjugate was used only for immunisation; also called DEspR(1-9)
T2 peptide: MTMFKGSNE
Protocol: Monoclonal antibody characterization by ELISA and Western blot analysis. The M₁[…]₉ antigenic peptide was coated directly on wells of a microtiter plate. Appropriate dilutions of primary antibodies were incubated at 37° C. for 1 hr. The wells were then incubated with HRP labeled anti-IgG (SIGMA cat#A0168) at 1:9000 at 37° C. for 1 hr. The reactions were visualized by the addition of 3,3′5,5′-tetramethylbenzidine substrate (incubation at 37° C. for 10 min) and read spectrophotometrically at 450 nm. Western blot analysis was done as described using equal amounts of whole cell protein extract (40 μg) from Cos1 cell transfectants stably expressing hDEspR[17] and corresponding candidate monoclonal antibodies raised against hDEspR specific synthetic peptide. Immunoreactive hDEspR (10 kDa polypeptide) was detected by chemiluminescence using the ECL Western Detection kit (GE Healthcare).

[4] = biological target: T3, human dual endothelin-1/VEGF signal peptide receptor (hDEspR) (human, UniProt B0L3A2 1-85); assay: cell-based or functional assay
T3 sequence: T1 sequence

Which results are given for “control isotype-targeted microbubbles (MBC)”?
Contrast intensity signal Δ (rat DEspR (rat)): 1.9; % of HUVECs bound [1]: 6.8%

How did the BRCA1 S1497 phosphorylation, % change from control (antibody microarray, Cos1-hDEspR, 30 min, 10 nM) [2] turn out when “endothelin-1 (ET1) (from UniProt P05305 53-73) (ligand)” was run?
Its BRCA1 S1497 phosphorylation, % change from control (antibody microarray, Cos1-hDEspR, 30 min, 10 nM) is 32 % CFC.

What about the CDK1/2 T14/Y15 phosphorylation, % change from control [2] of the same molecule?
Its CDK1/2 T14/Y15 phosphorylation, % change from control is 53 % CFC.

What about the CDK1/2 Y15 phosphorylation, % change from control [2] of the same molecule?
Its CDK1/2 Y15 phosphorylation, % change from control is 281 % CFC.

What about the ERK1/2 T202 + Y204; T185 + Y187 phosphorylation, % change from control [2] of the same molecule?
The ERK1/2 T202 + Y204; T185 + Y187 phosphorylation, % change from control was 135 % CFC.

And the FAK S722 phosphorylation, % change from control [2]?
The FAK S722 phosphorylation, % change from control was 55 % CFC.

And the FAK S732 phosphorylation, % change from control [2]?
Its FAK S732 phosphorylation, % change from control is 62 % CFC.

What about the FAK panspecific (expression), % change from control [2] of the same molecule?
The FAK panspecific (expression), % change from control was 205 % CFC.

And the Met panspecific (expression), % change from control [2]?
Its Met panspecific (expression), % change from control is 384 % CFC.

And the PCNA panspecific (expression), % change from control [2]?
Its PCNA panspecific (expression), % change from control is -47 % CFC.

What about the PKCa T638/T641 phosphorylation, % change from control [2] of the same molecule?
The PKCa T638/T641 phosphorylation, % change from control was 137 % CFC.

And the PKCe panspecific (expression), % change from control [2]?
Its PKCe panspecific (expression), % change from control is 103 % CFC.

And the Raf1 S259 phosphorylation, % change from control [2]?
The Raf1 S259 phosphorylation, % change from control was 12 % CFC.

What about the SHP2 S576 phosphorylation, % change from control [2] of the same molecule?
The SHP2 S576 phosphorylation, % change from control was 14 % CFC.

And the STAT1 S727 phosphorylation, % change from control [2]?
The STAT1 S727 phosphorylation, % change from control was 86 % CFC.

What about the STAT1 Y701 phosphorylation, % change from control [2] of the same molecule?
The STAT1 Y701 phosphorylation, % change from control was 95 % CFC.

And the STAT3 S727 phosphorylation, % change from control [2]?
The STAT3 S727 phosphorylation, % change from control was 133 % CFC.

What about the Shc1 (ShcA) Y349, Y350 phosphorylation, % change from control [2] of the same molecule?
Its Shc1 (ShcA) Y349, Y350 phosphorylation, % change from control is 9 % CFC.

What about the Smad 1/5/9 S463 + S465/S465 + S467 phosphorylation, % change from control [2] of the same molecule?
The Smad 1/5/9 S463 + S465/S465 + S467 phosphorylation, % change from control was 18 % CFC.

What about the Src Y418 phosphorylation, % change from control [2] of the same molecule?
Its Src Y418 phosphorylation, % change from control is -11 % CFC.

What about the Src Y529 phosphorylation, % change from control [2] of the same molecule?
Its Src Y529 phosphorylation, % change from control is -20 % CFC.

B1: anti-hDEspR 7C5B2 monoclonal antibody (antibody, IgG2b, V domains shown)
VH: QVQLKESGPGLVAPSQSLSITCTVSGFSLTSYDISWIRQPPGKGLEWLGVIWTGGGTNYNSAFMSRLSISKDNSKSQVFLKMNSLQTDDTAIYYCVRDRDYDGWYFDVWGAGTTVTVSS
VL: DVLMTQTPLSLPVSLGDQASISCRSSQSIVHSNGNTYLEWYLQKPGQSPKLLIYKVSNRFSGVPDRFSGSGSGTDFTLKISRVEAEDLGVYYCFQGSHVPYTFGGGTKLEIK
notes: Tested as hybridoma supernatant and as purified antibody; also called 7C5B2 antibody; 7C5B2 anti-DEspR antibody
Which results are given for B1?
binding result [3]: binds; EC50, inhibition of MDA-MB-468 tumor cell invasiveness [4]: 3.55 nM; EC50 for # branching points, inhibition of serum-induced HUVEC tubulogenesis [4]: 3.97 nM; EC50 for total tube length, inhibition of serum-induced HUVEC tubulogenesis [4]: 4.34 nM
